Patent publication US20120114652A1 (AbbVie / Abbott, published 2012)

Tests used:
[1] = target: human PAI-1, active, wild-type, non-glycosylated (E. coli-derived) (human, UniProt P05121 24-402); assay: cell-based or functional assay
cynomolgus PAI-1 = cynomolgus PAI-1 (cynomolgus, UniProt P05121 24-402 (human entry), limits assumed); assay: cell-based or functional assay
rat PAI-1 [2] = target: T1, rat PAI-1 (rat, UniProt P20961 24-402); assay: cell-based or functional assay
T1 sequence: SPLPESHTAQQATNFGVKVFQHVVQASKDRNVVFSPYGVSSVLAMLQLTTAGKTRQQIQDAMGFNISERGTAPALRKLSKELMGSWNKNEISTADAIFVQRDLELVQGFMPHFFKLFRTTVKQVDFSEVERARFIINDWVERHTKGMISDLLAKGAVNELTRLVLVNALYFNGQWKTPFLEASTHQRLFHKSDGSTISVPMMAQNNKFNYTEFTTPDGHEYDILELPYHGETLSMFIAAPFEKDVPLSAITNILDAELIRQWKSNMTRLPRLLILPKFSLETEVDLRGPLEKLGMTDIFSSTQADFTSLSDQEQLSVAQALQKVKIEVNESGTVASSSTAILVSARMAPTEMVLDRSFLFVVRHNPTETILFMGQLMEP

latent human PAI-1 = target: T2, latent human PAI-1 (human, UniProt P05121 24-402); assay: IgG competition ELISA (DELFIA), one-site binding analysis
T2 construct: also called latent PAI-1

rat PAI-1 [3] = target: T1, rat PAI-1; assay: IgG competition ELISA (DELFIA) against biotinylated human PAI-1, one-site binding analysis; column Rat
mouse PAI-1 = target: T3, mouse PAI-1 (mouse, UniProt P22777 24-401); assay: IgG competition ELISA (DELFIA) against biotinylated human PAI-1, one-site binding analysis; column Mouse
T3 construct: bought (US Biological); also called murine PAI-1
T3 sequence: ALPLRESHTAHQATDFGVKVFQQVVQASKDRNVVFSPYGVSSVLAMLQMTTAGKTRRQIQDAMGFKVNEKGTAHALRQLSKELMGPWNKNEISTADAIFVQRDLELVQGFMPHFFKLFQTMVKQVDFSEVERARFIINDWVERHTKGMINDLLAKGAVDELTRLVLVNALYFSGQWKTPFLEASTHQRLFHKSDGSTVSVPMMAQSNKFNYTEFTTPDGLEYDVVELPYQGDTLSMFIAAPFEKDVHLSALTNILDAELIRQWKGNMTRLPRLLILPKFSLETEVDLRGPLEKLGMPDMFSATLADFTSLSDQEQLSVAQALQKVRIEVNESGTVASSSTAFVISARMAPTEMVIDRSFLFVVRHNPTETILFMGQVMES

rabbit PAI-1 = target: T4, rabbit PAI-1 (rabbit); assay: IgG competition ELISA (DELFIA) against biotinylated human PAI-1, one-site binding analysis; column Rabbit
T4 chain: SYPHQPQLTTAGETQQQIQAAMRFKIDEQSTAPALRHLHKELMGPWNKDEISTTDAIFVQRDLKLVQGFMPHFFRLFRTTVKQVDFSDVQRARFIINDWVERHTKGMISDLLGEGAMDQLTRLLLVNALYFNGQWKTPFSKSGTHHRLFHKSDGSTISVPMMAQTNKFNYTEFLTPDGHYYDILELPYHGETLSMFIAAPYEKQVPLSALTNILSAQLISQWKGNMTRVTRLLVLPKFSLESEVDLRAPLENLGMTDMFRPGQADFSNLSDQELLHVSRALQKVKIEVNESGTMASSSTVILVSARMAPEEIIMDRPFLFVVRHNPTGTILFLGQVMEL

PAI-2 = PAI-2 (UniProt P05120 1-415, limits assumed); assay: competition ELISA (DELFIA): PICK167_A01 IgG1 coated on the plate, biotinylated human PAI-1, titration of the unlabelled test antigen
PAI-3 = target: T5, PAI-3 (UniProt P05154 26-406, limits assumed); assay: as above
T5 sequence (looked up): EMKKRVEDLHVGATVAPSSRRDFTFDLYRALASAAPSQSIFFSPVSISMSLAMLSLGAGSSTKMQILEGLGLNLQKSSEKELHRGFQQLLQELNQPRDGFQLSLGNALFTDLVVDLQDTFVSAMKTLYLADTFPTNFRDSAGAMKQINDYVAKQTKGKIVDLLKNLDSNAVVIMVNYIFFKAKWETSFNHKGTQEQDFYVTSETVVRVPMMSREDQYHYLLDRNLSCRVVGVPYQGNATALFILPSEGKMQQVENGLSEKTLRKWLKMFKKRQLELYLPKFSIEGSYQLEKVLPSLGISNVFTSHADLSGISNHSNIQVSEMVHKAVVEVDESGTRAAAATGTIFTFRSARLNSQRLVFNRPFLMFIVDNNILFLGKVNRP

antithrombin III = antithrombin III (UniProt P01008 33-464); assay: as above
α1-antitrypsin = target: T6, α1-antitrypsin (UniProt P01009 25-418); assay: as above
T6 construct: also called alpha-1-antitrypsin

α1-antichymotrypsin = target: T7, α1-antichymotrypsin (UniProt P01011 24-423); assay: as above
T7 sequence (looked up): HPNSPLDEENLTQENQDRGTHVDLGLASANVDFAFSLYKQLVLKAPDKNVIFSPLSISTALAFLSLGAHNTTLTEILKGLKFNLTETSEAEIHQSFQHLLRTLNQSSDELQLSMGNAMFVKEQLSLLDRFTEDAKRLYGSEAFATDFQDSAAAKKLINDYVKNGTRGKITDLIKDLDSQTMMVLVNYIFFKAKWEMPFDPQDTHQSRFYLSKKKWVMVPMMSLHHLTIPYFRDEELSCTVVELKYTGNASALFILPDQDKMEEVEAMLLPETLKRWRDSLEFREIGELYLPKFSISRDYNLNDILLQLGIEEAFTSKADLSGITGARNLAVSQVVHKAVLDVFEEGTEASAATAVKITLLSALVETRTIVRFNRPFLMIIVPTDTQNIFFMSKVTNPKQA

IC50, PAI-1:tPA functional assay [1]: 1.34 nM
IC50, PAI-1:tPA functional assay (cynomolgus PAI-1): 0.8 nM
IC50, PAI-1:tPA functional assay (rat PAI-1 [2]): 1.97 nM
fold loss of binding affinity against wild-type active PAI-1 (latent human PAI-1): 10 fold
fold difference in observed binding KD compared to human wild-type active (rat PAI-1 [3]): 9.7 fold
fold difference in observed binding KD compared to human wild-type active (mouse PAI-1): 47 fold
fold difference in observed binding KD compared to human wild-type active (rabbit PAI-1): 41.5 fold
B1: PICK167_A01 IgG1 (antibody, V domains shown)
VH: QVQLQQSGAEVKKPGSSVKVSCKASGGTFSSYAISWVRQAPGQRLEWMGGIIPTFGTANYAQKFQGRVTITADESTSTAYMELSGLRSEDTAVYYCARERRQWLEGHFDYWGRGTPVTVSS
VL: DIQMTQSPSFLSASIGDRVTITCRASEGIYHNLAWYQQKPGKAPKLLIYKASSLASGAPSRFSGSRSGTDFTLTISSLQPDDFATYYCQQYSNYPLTFGGGTKLEIKR
binding result (PAI-2): no binding (tested: log M about -6.3 (about 5e-7 M))
binding result (PAI-3): no binding (tested: log M about -6.3 (about 5e-7 M))
binding result (antithrombin III): no binding (tested: log M about -6.3 (about 5e-7 M))
binding result (α1-antitrypsin): no binding (tested: log M about -6.3 (about 5e-7 M))
binding result (α1-antichymotrypsin): no binding (tested: log M about -6.3 (about 5e-7 M))
